Reference: US10295490B2, “MEMS-based calorimeter, fabrication, and use thereof” (The Trustees Of Columbia University In the City of New York, priority 2014, dated 2019)

Legend:
[1] = MEMS DSC measurement of lysozyme unfolding (Example 2); format: physicochemical; conditions: 0.1 M Glycine-HCl buffer pH 2.5; 1 to 20 mg/mL; scan 25-75° C. at 5° C./min
Experimental: DSC measurements of biomolecules were performed using the calibrated microdevice, whose sample chamber and reference chamber were respectively filled with biological sample and buffer solutions, scanned in a range of temperature of interest. The temperature sensors were used to monitor the temperatures of calorimetric chambers while the device output was obtained in real time to compute the biomolecular thermal power. Before DSC measurements, the baseline in device output, i.e., the thermopile output voltage in the absence of a differential power input, during temperature scanning was measured with both calorimetric chambers filled with buffer solutions. […]
The thermopile output voltage as a function of temperature, corrected by baseline subtraction, was measured at varying protein concentrations ranging from 1 to 20 mg/mL (FIG. 10).
Despite the amplitude difference of device output at various protein concentrations, they all yielded consistent estimates of the thermodynamic properties associated with the protein unfolding process. In particular, the profile shape of c was generally not influenced by protein concentration, and ΔH was consistently determined to be approximately 450 kJ/mol with a corresponding melting temperature Tm of approximately 55° C.

[2] = Polymer MEMS DSC measurement of lysozyme unfolding (Example 6); format: physicochemical; conditions: 0.1 M Glycine-HCL buffer pH 2.5; scan 5 K/min; all concentrations except 1 mg/mL
Experimental: The sample solutions and buffer were degassed overnight in a vacuum chamber built in-house, metered with Micropipettes, and introduced by a syringe pump (New Era Pump Systems, Inc., NE-1000) before the DSC measurements.
Before DSC measurements, the baseline, i.e., the thermopile output voltage in the absence of a differential power input, during temperature scanning in the range of interest was recorded with both calorimetric channels filled with buffer solutions. After which, characterizations of biomolecules were performed with the calorimetric channels, respectively filled with a biological sample and a buffer solutions, and scanned in the same range with pre-specified rate. The temperature sensors were used to monitor the temperatures of calorimetric channels, while the device output was obtained in real time to compute the biomolecular thermal power.
The calibrated polymer MEMS DSC device was then exploited to characterize protein unfolding. […]
The thermopile differential voltage as a function of temperature, corrected by baseline subtraction, was measured at varying concentrations ranging from 1 to 20 mg/mL (FIG. 42). […] Furthermore, the differential heat capacity as a function of temperature and the calibrated device sensitivity can be calculated from the device voltage output by Equation 7. The sample heat capacity as a function of temperature was determined by: […]

[3] = MEMS AC-DSC measurement of lysozyme unfolding (Example 3); format: physicochemical; conditions: 10 and 20 mg/mL in 0.1 M Glycine-HCl pH 2.5, 5° C./min, modulation 1, 5 or 10 Hz
Text: The microdevice was also placed in a thermal enclosure built in-house. […] The AC-DSC measurement was fully automated through a Lab VIEW program.
The MEMS AC-DSC device calibrated above was used to measure the thermal behavior of protein unfolding.
Meanwhile, the specific heat capacity (c) of the protein as a function of temperature can be computed from the thermopile voltage amplitude (FIG. 19).

[4] = cited from earlier work

In the case of “lysozyme: targeted sample biomolecule, purchased from Sigma Aldrich (lyophilized powder, protein ≥90%), used for protein unfolding DSC”, the “melting temperature Tm” value [1] is reported as “approximately 55 °C”, the “total change of molar enthalpy (ΔH) of lysozyme unfolding” value [1] is reported as “approximately 450 kJ/mol” and the “melting temperature Tm” value [2] is reported as 54.71 °C. For the same substance, the “total enthalpy change per mole of lysozome (ΔH)” value [2] was 421 kJ/mol, the “apparent melting temperature (Tm)” value [3] was 55-58 °C and the “Tm of lysozyme, published data” value [4] was 55-58.9 °C. For the same substance, the “ΔH of lysozyme unfolding, published data” value [4] was 377 to 439 kJ/mol.
